{
  "source": "patent CN114437205A",
  "binders": {"B1": {"name": "抗体CT150 (antibody, V domains shown)", "VH": "QEQLVESGGGVVQPGRSLRLSCAASGFTFSSYAMHWVRQAPGEGLEWVALISYDGDNKYYADSVKGRFTISRDNSKTTLFLQMNSLRAEDTAVYYCARDRGSYFYGVDVWGQGATVTVSS", "VL": "DIQLTQSPSFLSASVGDRVTITCRASQDINSYLAWYQQKPGKAPKLLIYAASTLQSGVPSRFSGSGSGTEFTLTISSLQPEDFATYYCQQLNSYPIFTFGPGTKVDIK"}},
  "target": "SARS S-his (SARS)",
  "data": [
    {"binder": "B1", "values": [
      {"measurement": "EC50", "result": 0.129, "unit": "µg/mL"}
    ]}
  ]
}
